Consider two molecules from PMC7794343, “Structures of human dual oxidase 1 complex in low-calcium and high-calcium states” (Nature Communications, 2021).

B1: human dual oxidase 1 (hDUOX1), matured protein 20-1551 with N-terminal GFP tag (enzyme, UniProt Q9NRD9-1 20-1551, looked up)
chain: GAQNPISWEVQRFDGWYNNLMEHRWGSKGSRLQRLVPASYADGVYQPLGEPHLPNPRDLSNTISRGPAGLASLRNRTVLGVFFGYHVLSDLVSVETPGCPAEFLNIRIPPGDPMFDPDQRGDVVLPFQRSRWDPETGRSPSNPRDPANQVTGWLDGSAIYGSSHSWSDALRSFSRGQLASGPDPAFPRDSQNPLLMWAAPDPATGQNGPRGLYAFGAERGNREPFLQALGLLWFRYHNLWAQRLARQHPDWEDEELFQHARKRVIATYQNIAVYEWLPSFLQKTLPEYTGYRPFLDPSISSEFVAASEQFLSTMVPPGVYMRNASCHFQGVINRNSSVSRALRVCNSYWSREHPSLQSAEDVDALLLGMASQIAEREDHVLVEDVRDFWPGPLKFSRTDHLASCLQRGRDLGLPSYTKARAALGLSPITRWQDINPALSRSNDTVLEATAALYNQDLSWLELLPGGLLESHRDPGPLFSTIVLEQFVRLRDGDRYWFENTRNGLFSKKEIEEIRNTTLQDVLVAVINIDPSALQPNVFVWHKGDPCPQPRQLSTEGLPACAPSVVRDYFEGSGFGFGVTIGTLCCFPLVSLLSAWIVARLRMRNFKRLQGQDRQSIVSEKLVGGMEALEWQGHKEPCRPVLVYLQPGQIRVVDGRLTVLRTIQLQPPQKVNFVLSSNRGRRTLLLKIPKEYDLVLLFNLEEERQALVENLRGALKESGLSIQEWELREQELMRAAVTREQRRHLLETFFRHLFSQVLDINQADAGTLPLDSSQKVREALTCELSRAEFAESLGLKPQDMFVESMFSLADKDGNGYLSFREFLDILVVFMKGSPEEKSRLMFRMYDFDGNGLISKDEFIRMLRSFIEISNNCLSKAQLAEVVESMFRESGFQDKEELTWEDFHFMLRDHNSELRFTQLCVKGVEVPEVIKDLCRRASYISQDMICPSPRVSARCSRSDIETELTPQRLQCPMDTDPPQEIRRRFGKKVTSFQPLLFTEAHREKFQRSCLHQTVQQFKRFIENYRRHIGCVAVFYAIAGGLFLERAYYYAFAAHHTGITDTTRVGIILSRGTAASISFMFSYILLTMCRNLITFLRETFLNRYVPFDAAVDFHRLIASTAIVLTVLHSVGHVVNVYLFSISPLSVLSCLFPGLFHDDGSEFPQKYYWWFFQTVPGLTGVVLLLILAIMYVFASHHFRRRSFRGFWLTHHLYILLYVLLIIHGSFALIQLPRFHIFFLVPAIIYGGDKLVSLSRKKVEISVVKAELLPSGVTHLRFQRPQGFEYKSGQWVRIACLALGTTEYHPFTLTSAPHEDTLSLHIRAAGPWTTRLREIYSAPTGDRCARYPKLYLDGPFGEGHQEWHKFEVSVLVGGGIGVTPFASILKDLVFKSSVSCQVFCKKIYFIWVTRTQRQFEWLADIIREVEENDHQDLVSVHIYITQLAEKFDLRTTMLYICERHFQKVLNRSLFTGLRSITHFGRPPFEPFFNSLQEVHPQVRKIGVFSCGPPGMTKNVEKACQLINRQDRTHFSHHYENF
modifications: N-linked glycosylation
notes: human DUOX1, matured protein residues 20-1551; Secretion guided by a rat FSHbeta signal peptide before the GFP tag; GFP-tagged protein is 219 kDa; also called GFP-tagged hDUOX1; WT hDOUX1; source: HEK293F, BacMam baculovirus infection; digitonin-solubilised membrane for FSEC; purified with hDUOXA1 (Streptactin beads, peptidisc with NSPr, Superose 6 increase) for cryo-EM; not shown: GFP, …
B2: human dual oxidase maturation factor 1 (hDUOXA1), as in the purified peptidisc complex (natural protein)
chain: MATLGHTFPFYAGPKPTFPMDTTLASIIMIFLTALATFIVILPGIRGKTRLFWLLRVVTSLFIGAAILAVNFSSEWSVGQVSTNTSYKAFSSEWISADIGLQVGLGGVNITLTGTPVQQLNETINYNEEFTWRLGENYAEEYAKALEKGLPDPVLYLAEKFTPRSPCGLYRQYRLAGHYTSAMLWVAFLCWLLANVMLSMPVLVYGGYMLLATGIFQLLALLFFSMATSLTSPCPLHLGASVLHTHHGPAFWITLTTGLLCVLLGLAMAVAHRMQPHRLKAFFNQSVDEDPMLEWSPEEGGLLSPRYRSMADSPKSQDIPLSEASSTKAY
modifications: N-linked glycosylation on N109
notes: human DUOXA1; cDNA cloned into a non-tagged BacMam vector or one with C-terminal MBP-mScarlet tag; the non-tagged one is surmised here; source: HEK293F, BacMam baculovirus infection, co-expressed with hDUOX1 from a bicistronic vector; purified with hDUOX1 (Streptactin beads, peptidisc, Superose 6 increase)

Data set [1] concerns the molecule itself. The experiment in a line: SEC; fluorescence size-exclusion chromatography (FSEC) of GFP-tagged hDUOX1 co-expressed with hDUOXA1; membrane solubilised in TBS + 1% digitonin, 1 h, 4 °C. A general note: Size exclusion chromatography separates by hydrodynamic size, large species first.
Data set [2] has as its target B1. Description: cryo-EM structure; hDUOX1-hDUOXA1 complex in peptidisc (NSPr); 2.5 mM EGTA (low calcium) or 0.5 mM free calcium (high calcium); 100 uM FAD, 500 uM NADPH, 0.5 mM fluorinated octyl-maltoside. The settings on record: both partners purified.

On to B1, for which the binding result in data set [1] was “binds”. For B2, the stoichiometry N (usually the number of molecules, sites or subunits per partner or assembly) in data set [2] is 1 hDUOXA1 per hDUOX1 (2:2).
